Measured values from patent publication US20210284734A1.

Target: cyno PD1
Test: flow cytometry, PD-1-transfected CHO-S cells; mAb 10 ug/ml, then R-PE PD-L1-Fc as blocked ligand

pembrolizumab analogue (antibody), sequence (VH): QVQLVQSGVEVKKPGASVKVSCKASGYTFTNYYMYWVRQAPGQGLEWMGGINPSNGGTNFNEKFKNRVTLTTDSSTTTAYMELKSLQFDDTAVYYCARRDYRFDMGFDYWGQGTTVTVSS
pembrolizumab analogue (antibody), sequence (VL): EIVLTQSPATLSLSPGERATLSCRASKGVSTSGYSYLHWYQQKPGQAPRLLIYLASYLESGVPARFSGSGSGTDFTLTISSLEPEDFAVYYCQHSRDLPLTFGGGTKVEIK
cyno PD1, sequence (receptor, as listed by the source limits assumed): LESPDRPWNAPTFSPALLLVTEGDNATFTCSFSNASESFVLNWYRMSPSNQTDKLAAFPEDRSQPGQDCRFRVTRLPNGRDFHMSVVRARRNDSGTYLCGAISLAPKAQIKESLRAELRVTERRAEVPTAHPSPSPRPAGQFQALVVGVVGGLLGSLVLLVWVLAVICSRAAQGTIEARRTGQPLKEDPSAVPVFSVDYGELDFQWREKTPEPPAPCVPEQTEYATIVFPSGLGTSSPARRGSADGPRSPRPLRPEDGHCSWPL

% of all cells in Q2 of panel PD-L1 binding (PD-L1+, CFSE+ cyno PD1 cells): 0.38%
% of all cells in Q3 of panel PD-L1 binding (PD-L1-, CFSE+ cyno PD1 cells): 52.5%
% of cyno PD1-gated cells in Q1 (mAb+, PD-L1-): 44.7%
% of cyno PD1-gated cells in Q2 (mAb+, PD-L1+): 3.84%
% of cyno PD1-gated cells in Q3 (mAb-, PD-L1+): 0.92%
% of cyno PD1-gated cells in Q4 (mAb-, PD-L1-): 50.6%
Substance: pembrolizumab analogue (antibody)
